Patent US20060074222

Test system: Pin1 R14A (SEQ ID NO:2)

## phosphokinase A (PKA)
  MALDI-TOF of partial tryptic digest, mass gain of peptide 69-74: the peak corresponding to residues 69-74 of Pin1 gains ~80 Daltons after treatment with PKA
  proline isomerase activity (protease-coupled assay, rate constant of isomerization): phosphorylation of Pin1 R14A at position 71 by PKA inhibits the ability of the enzyme to isomerizes substrate
